According to the supplement of paper PMC6755084:

B1: F1*; the commonest letter at each place (parent)
chain: GAGACCGCAACTGAAAAGTTGTTATCACTTGTCGTAAGACACTTTGGATGGGTTGAAGTTCTGCACGTAGAAGCAAAAGGC

Variants of: B1
Experiment: fraction ligated after 30 min (ligated reads / total reads); higher = more ligase activity
Details: with F1*sub RNA substrate (template-directed ligation), 42 °C
Method in brief: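 Ribozyme variants were transcribed with T7 from PCR-amplified oligo-pool templates and gel-purified. Ligated and unligated bands, separated on gel, were reverse transcribed with barcoded primers and sequenced on a MiSeq, with core bases filtered at quality ≥20. Fraction ligated per variant was computed as ligated reads divided by total reads.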

Variant	fraction ligated
A41T G50A	0.342
A41T G50T	0.715
A41T G50C	0.268
C40A G47A	0.769
C40A G47C	0.25
C40A G47T	0.341
C42T G47A	0.823
C42T G47C	0.11
C42T G47T	0.408
A41T G46A	0.804
A41T G46T	0.787
A41T G46C	0.792
A41T T43C	0.773
A41T T43A	0.822
A41T T43G	0.803
A41C T45A	0.55
A41C T45C	0.328
A41C T45G	0.0888
T43A G47C	0.515
T43A G47T	0.643
T43A G47A	0.804
C40A T49C	0.116
C40A T49A	0.517
C40A T49G	0.674

Variant	fraction ligated
C40A G50A	0.212
C40A G50T	0.488
C40A G50C	0.123
A41C T44A	0.764
A41C T44C	0.769
A41C T44G	0.797
C42T T44A	0.862
C42T T44C	0.855
C42T T44G	0.833
C40G T44A	0.841
C40G T44G	0.807
C40G T44C	0.775
C40G T43C	0.811
C40G T43A	0.817
C40G T43G	0.819
T43A G55A	0.854
C42T T45A	0.799
C42T T45G	0.557
C42T T45C	0.79
T43A	0.855
A41T A57C	0.787
A41T A57T	0.808
A41T A57G	0.807
C42G T45G	0.291

Variant	fraction ligated
C42G T45C	0.756
C42G T45A	0.796
C42G T49C	0.727
C42G T49A	0.79
C42G T49G	0.777
C40G A57C	0.788
C40G A57G	0.8
C40G A57T	0.79
A41T T44A	0.815
A41T T44C	0.806
A41T T44G	0.8
C42T G50C	0.497
C42T G50A	0.634
C42T G50T	0.808
C42T A48G	0.806
C42T A48T	0.796
C42T A48C	0.779
C40T G46T	0.792
C40T G46A	0.809
C40T G46C	0.79
C40T G50T	0.784
C40T G50A	0.567
C40T G50C	0.357
C40G A41C	0.784

Variant	fraction ligated
C40G A41T	0.768
C40G A41G	0.807
A41C T49C	0.17
A41C T49A	0.178
A41C T49G	0.209
C42G A56C	0.801
C42G A56T	0.797
C42G A56G	0.792
C40G G55C	0.659
C40G G55A	0.808
C40G G55T	0.794
T43A A56G	0.782
T43A A56T	0.81
T43A A56C	0.79
C40A T44G	0.779
C40A T44A	0.823
C40A T44C	0.794
C42G G47C	0.64
C42G G47A	0.805
C42G G47T	0.68
C40A T45G	0.0271
C40A T45C	0.358
C40A T45A	0.66
C40T G47C	0.163

Variant	fraction ligated
C40T G47T	0.197
C40T G47A	0.798
C42G G55T	0.809
C42G G55A	0.853
C42G G55C	0.758
C42A T49C	0.727
C42A T49G	0.789
C42A T49A	0.797
C42T T43A	0.866
C42T T43C	0.828
C42T T43G	0.818
A41G T45G	0.119
A41G T45A	0.482
A41G T45C	0.541
C40G G46A	0.825
C40G G46T	0.793
C40G G46C	0.801
C40T T43A	0.819
C40T T43G	0.782
C40T T43C	0.795
A41C C42G	0.826
A41C C42T	0.812
A41C C42A	0.844
C42A T44G	0.805

Variant	fraction ligated
C42A T44A	0.855
C42A T44C	0.834
A41T A48T	0.345
A41T A48G	0.762
A41T A48C	0.73
A41T G55C	0.706
A41T G55T	0.81
A41T G55A	0.809
C42A A48G	0.785
C42A A48T	0.803
C42A A48C	0.761
C40G	0.816
C40T	0.833
C40G C42T	0.8
C40G C42G	0.826
C40G C42A	0.82
A41C A48C	0.571
A41C A48T	0.736
A41C A48G	0.783
T43A G50A	0.267
T43A G50C	0.153
T43A G50T	0.614
C42T A56T	0.811
C42T A56G	0.821

Variant	fraction ligated
C42T A56C	0.797
A41C G55T	0.751
A41C G55C	0.329
A41C G55A	0.804
A41T C42A	0.849
A41T C42T	0.848
A41T C42G	0.836
A41C A56T	0.615
A41C A56C	0.503
A41C A56G	0.561
A41G T44G	0.809
A41G T44A	0.796
A41G T44C	0.76
A41C A57C	0.767
A41C A57G	0.773
A41C A57T	0.785
C40T A41T	0.822
C40T A41C	0.78
C40T A41G	0.765
C40T A56T	0.799
C40T A56C	0.773
C40T A56G	0.801
A41C G46C	0.639
